Data published in paper PMC12575849.

Columns and labels:
CHD1 deltaNC (human) = assay: EMSA; conditions: 5 mM Mg2+, no ATP listed; 10 mM HEPES pH 8.0, 75 mM NaCl, 5 mM MgCl2, 10% glycerol, 1 mM DTT, 0.1 mg/ml BSA; 5 nM nucleosome; 30 min at 30 C; native PAGE
CHD1 WT (human) = assay: EMSA; conditions: 5 mM Mg2+, no ATP listed; 10 mM HEPES pH 8.0, 75 mM NaCl, 5 mM MgCl2, 10% glycerol, 1 mM DTT, 0.1 mg/ml BSA; 5 nM nucleosome; 30 min at 30 C; native PAGE
[1] = molecular target: unmodified nucleosome (recombinant human histone octamer on Widom 601 DNA) (human) (UniProt P04908); assay: native gel or EMSA; purified CHD1 titrated against 5 nM IR dye-conjugated nucleosome in EMSA buffer (10 mM HEPES pH 8.0, 75 mM NaCl, 5 mM MgCl2, 10% glycerol, 1 mM DTT, 0.1 mg/ml BSA), 30 min at 30 °C, native PAGE; shifted fraction fitted to a dose-response curve

Sequence of recombinant CHD1^WT protein (O14646 whole entry): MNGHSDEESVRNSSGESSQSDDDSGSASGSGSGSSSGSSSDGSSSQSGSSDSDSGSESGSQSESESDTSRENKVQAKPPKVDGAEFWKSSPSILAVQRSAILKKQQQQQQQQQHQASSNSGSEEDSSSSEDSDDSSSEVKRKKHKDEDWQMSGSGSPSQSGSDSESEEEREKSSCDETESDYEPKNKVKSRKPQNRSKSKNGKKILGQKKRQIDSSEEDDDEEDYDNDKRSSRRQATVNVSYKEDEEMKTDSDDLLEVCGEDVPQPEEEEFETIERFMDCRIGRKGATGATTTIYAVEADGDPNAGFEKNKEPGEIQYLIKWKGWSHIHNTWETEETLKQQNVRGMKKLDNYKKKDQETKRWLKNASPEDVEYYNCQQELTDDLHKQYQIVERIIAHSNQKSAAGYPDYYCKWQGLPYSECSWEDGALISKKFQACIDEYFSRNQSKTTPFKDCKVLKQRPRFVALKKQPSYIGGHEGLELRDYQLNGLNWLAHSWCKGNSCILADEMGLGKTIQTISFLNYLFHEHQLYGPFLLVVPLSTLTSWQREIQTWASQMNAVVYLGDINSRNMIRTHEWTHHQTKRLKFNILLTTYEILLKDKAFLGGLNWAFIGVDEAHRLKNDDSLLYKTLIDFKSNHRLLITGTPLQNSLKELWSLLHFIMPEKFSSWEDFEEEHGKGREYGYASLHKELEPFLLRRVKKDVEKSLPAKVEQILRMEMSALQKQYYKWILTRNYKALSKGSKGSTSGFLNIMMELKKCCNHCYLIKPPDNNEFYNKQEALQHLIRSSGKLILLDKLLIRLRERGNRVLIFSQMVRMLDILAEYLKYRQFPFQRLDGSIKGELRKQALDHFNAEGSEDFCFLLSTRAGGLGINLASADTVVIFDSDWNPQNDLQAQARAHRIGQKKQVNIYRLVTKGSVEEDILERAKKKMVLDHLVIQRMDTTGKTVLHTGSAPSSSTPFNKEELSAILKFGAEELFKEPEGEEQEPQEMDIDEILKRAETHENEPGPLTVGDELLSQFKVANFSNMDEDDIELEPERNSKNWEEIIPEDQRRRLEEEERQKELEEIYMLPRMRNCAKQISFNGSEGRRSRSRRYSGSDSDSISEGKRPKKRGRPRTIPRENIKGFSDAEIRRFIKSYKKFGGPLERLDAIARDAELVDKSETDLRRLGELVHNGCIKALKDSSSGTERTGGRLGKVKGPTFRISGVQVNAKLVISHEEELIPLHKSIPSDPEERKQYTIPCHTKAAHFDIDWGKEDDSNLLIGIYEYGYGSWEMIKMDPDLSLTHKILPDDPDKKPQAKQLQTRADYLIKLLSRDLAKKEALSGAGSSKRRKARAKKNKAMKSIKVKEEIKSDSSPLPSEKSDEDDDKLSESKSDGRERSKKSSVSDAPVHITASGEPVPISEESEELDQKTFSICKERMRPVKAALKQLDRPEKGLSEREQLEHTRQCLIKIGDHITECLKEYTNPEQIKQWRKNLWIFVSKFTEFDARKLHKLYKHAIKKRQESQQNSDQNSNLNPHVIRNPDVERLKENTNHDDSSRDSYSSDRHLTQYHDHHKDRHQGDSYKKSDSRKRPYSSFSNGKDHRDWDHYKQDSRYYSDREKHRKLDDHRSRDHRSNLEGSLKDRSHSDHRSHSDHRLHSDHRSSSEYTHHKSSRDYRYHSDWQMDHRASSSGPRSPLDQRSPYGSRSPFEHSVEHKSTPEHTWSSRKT

Substance	Kd (CHD1 deltaNC (human))	Kd (CHD1 WT (human))	Kd [1]
Widom 601 nucleosome (unmodified)	6.3 nM	221 nM	–
recombinant CHD1^WT protein (from UniProt O14646 1-1710) (natural protein)	–	–	221 nM
